Source: patent US20240239894A1 (AstraZeneca / MedImmune, published 2024)
Substitutions are numbered along the chain they refer to.

What was measured:
[1] = target: T1, recombinant human B7-H4 (tag format not stated) (human, UniProt Q7Z7D3 25-259); assay: SPR, antibody capture
T1 construct: also called huB7-H4; human B7-H4 antigen
T1 sequence: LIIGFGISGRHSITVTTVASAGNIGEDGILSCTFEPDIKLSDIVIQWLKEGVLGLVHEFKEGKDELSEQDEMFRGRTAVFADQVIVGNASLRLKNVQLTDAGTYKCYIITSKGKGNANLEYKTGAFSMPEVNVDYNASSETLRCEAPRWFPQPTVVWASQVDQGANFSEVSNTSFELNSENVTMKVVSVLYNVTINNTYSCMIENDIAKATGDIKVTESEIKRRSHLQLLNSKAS

[2] = target: T2, human B7-H4 on cells (human, UniProt Q7Z7D3 25-282); assay: flow cytometry on HT29-huB7-H4 Clone 4 cells, MFI (geometric mean)
T2 construct: On transfected/engineered cells (HEK293, CHO, HT29, Ad293) or endogenous on human cancer cell lines; also called huB7-H4; hB7-H4
T2 sequence: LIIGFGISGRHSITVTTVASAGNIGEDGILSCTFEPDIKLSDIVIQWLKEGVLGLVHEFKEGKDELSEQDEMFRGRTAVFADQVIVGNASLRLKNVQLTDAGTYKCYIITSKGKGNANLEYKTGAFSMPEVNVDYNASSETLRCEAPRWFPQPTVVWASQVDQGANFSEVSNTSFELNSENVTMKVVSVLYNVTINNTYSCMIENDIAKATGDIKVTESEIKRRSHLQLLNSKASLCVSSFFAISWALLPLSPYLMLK

[3] = target: human FcRn (human, UniProt P55899 24-297; P61769 21-119); assay: SPR, steady state; steady state; human FcRn
[4] = target: T2, human B7-H4 on cells; assay: flow cytometry on MDA-MB-468 cells (endogenous human B7-H4), MFI (geometric mean)
[5] = target: huFcγRI (human, UniProt P12314 16-288); assay: SPR, equilibrium KD; equilibrium KD; huFcγRI
[6] = target: T1, recombinant human B7-H4 (tag format not …); assay: DELFIA-ELISA on immobilized recombinant human B7-H4
[7] = target: T2, human B7-H4 on cells; assay: cell-based or functional assay
[8] = target: T2, human B7-H4 on cells; assay: flow cytometry on HT29-huB7-H4 Clone 26 cells, MFI (geometric mean)
[9] = target: T2, human B7-H4 on cells; assay: flow cytometry on MX-1 cells (endogenous human B7-H4), MFI (geometric mean)
[10] = target: T3, recombinant mouse B7-H4 (tag format not stated) (mouse, UniProt Q7TSP5 25-257, limits assumed); assay: SPR
T3 construct: FlagHis10 or FcHis6 in the commercial antibody ELISA; also called murine B7-H4 antigen
T3 sequence (looked up): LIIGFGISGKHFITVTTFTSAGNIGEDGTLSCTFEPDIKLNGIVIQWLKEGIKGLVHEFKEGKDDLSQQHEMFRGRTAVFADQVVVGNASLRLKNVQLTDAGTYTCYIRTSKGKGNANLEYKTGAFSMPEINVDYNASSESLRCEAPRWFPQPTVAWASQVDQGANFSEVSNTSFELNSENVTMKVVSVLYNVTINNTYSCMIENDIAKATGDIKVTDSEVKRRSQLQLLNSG

[11] = target: T4, Human B7-H4 ECD-Flag-His10 (monomeric) (human, UniProt Q7Z7D3 25-259); assay: KinExA 3200, Fab at 5, 10 or 45 nM, 25 C, N-curve analysis
T4 construct: Minimally biotinylated for KinExA; also called hB7H4-ECD-Flag-His10; B7-H4-FLAG
T4 sequence: T1 sequence

[12] = target: T3, recombinant mouse B7-H4 (tag format not …); assay: SPR; remark: listed apart in the source
[13] = target: T4, Human B7-H4 ECD-Flag-His10 (monomeric); assay: KinExA 3200, Fab, N-curve analysis
[14] = target: T1, recombinant human B7-H4 (tag format not …); assay: SPR, immobilized B7-H4
[15] = target: T5, recombinant cynomolgus monkey B7-H4 (tag format not stated) (cynomolgus monkey, UniProt A0A2K5U6P5 25-259); assay: SPR, immobilized B7-H4
T5 construct: also called cyno B7-H4
T5 sequence: T1 sequence with L53I

[16] = target: T6, murine B7-H4 on cells (mouse, UniProt Q7TSP5 25-257); assay: flow cytometry on HEK293 JI TREX cells stably expressing murine B7-H4, MFI (geometric mean)
T6 construct: whole, on cells; also called muB7-H4
T6 sequence (looked up): T3 sequence (looked up)

[17] = target: T7, cynomolgus monkey B7-H4 on cells (cynomolgus monkey, UniProt A0A2K5U6P5 25-282); assay: flow cytometry on HEK293 JI TREX cells stably expressing cynomolgus monkey B7-H4, MFI (geometric mean)
T7 construct: whole, on cells; On HEK 293 cells; also called cynoB7-H4
T7 sequence: T2 sequence with L53I, F242L, S252A

[18] = target: T1, recombinant human B7-H4 (tag format not …); assay: ELISA, Maia format mAb (GLQ)
[19] = target: T3, recombinant mouse B7-H4 (tag format not …); assay: ELISA, Maia format mAb (GLQ)
[20] = target: T1, recombinant human B7-H4 (tag format not …); assay: ELISA, Maia format mAb (GLY)
[21] = target: T3, recombinant mouse B7-H4 (tag format not …); assay: ELISA, Maia format mAb (GLY)

Chain of human FcRn (P55899 24-297 limits assumed, chain 1 of 2): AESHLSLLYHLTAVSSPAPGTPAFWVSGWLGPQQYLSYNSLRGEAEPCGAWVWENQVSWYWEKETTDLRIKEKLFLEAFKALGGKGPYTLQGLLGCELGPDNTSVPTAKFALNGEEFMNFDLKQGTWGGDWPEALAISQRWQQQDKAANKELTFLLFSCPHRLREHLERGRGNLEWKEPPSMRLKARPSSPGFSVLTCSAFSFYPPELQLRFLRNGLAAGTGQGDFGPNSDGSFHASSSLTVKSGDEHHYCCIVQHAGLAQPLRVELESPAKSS
Chain of human FcRn (P61769 21-119 limits assumed, chain 2 of 2): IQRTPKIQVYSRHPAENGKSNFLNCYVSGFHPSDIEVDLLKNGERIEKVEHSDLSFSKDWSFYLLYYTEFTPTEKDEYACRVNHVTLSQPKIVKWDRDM
Chain of huFcγRI (P12314 16-288 limits assumed): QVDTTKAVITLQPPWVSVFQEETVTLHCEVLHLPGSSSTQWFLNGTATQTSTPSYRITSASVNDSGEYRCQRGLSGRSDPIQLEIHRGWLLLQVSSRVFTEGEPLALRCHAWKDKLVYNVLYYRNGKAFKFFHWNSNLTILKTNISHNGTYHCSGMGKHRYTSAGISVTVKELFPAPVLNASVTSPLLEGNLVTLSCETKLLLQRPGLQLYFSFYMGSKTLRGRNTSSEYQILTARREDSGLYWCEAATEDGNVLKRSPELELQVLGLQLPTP

B1: E02-GL-SG3932 (antibody, human IgG1, kappa)
heavy: not shown
light: DIQMTQSPSSLSASVGDRVTITCRASQDIRNDVGWYQQKPGKAPKRLIYAASRLQSGVPSRFSGSGSGTEFTLTISSLQPEDFATYYCLQHNSYPRTFGQGTKVEIKRTVAAPSVFIFPPSDEQLKSGTASVVCLLNNFYPREAKVQWKVDNALQSGNSQESVTEQDSKDSTYSLSSTLTLSKADYEKHKVYACEVTHQGLSSPVTKSFNRGEC
modifications: SG3932 on native cysteines (DAR about 8 for the whole antibody); SG3932 (mal-PEG8-val-ala linker with TOP1i warhead) on native cysteines through a thiosuccinimide linkage, about 8 drugs per antibody
notes: also called E02-INT-SG3932; B7-H4 targeting TOP1i-ADC; copies: 2 + 2
For B1, the Kd [1] was 29.3 nM, the koff [1] was 0.0028 s⁻¹ and the kon [1] was 95500 M⁻¹ s⁻¹. For the same binder, the “EC50 (read off the curve)” value [2] was about 0.07 µg/mL, the Kd [3] was 4360 nM and the “EC50 (read off the curve)” value [4] was about 0.08 µg/mL. For the same binder, the Kd [5] was 4.35 nM, the EC50 [6] was 1.71 nM and the “IC50, cytotoxicity (CellTiter-Glo) on HT29-huB7-H4 Clone 26” value [7] was 0.036 g/mL (as printed; probably µg/mL). The “IC50, cytotoxicity (CellTiter-Glo) on MX-1” value [7] was 0.029 µg/mL, the “IC50, cytotoxicity (CellTiter-Glo, 6 days) on human B7-H4 transfected Ad293 cells” value [7] was 0.0533 µg/mL and the “EC50 (read off the curve)” value [8] was about 0.1 µg/mL. For the same binder, the “EC50 (read off the curve)” value [9] was about 0.1 µg/mL.

B2: E02_GL Fab (Fab, V domains shown)
VH: QVQLQQWGAGLLKPSETLSLACTVYGGSFSGYYWNWIRQPPGKGLEWIGEINHSGSTSYNPSLKSRVTISVDTSKNQFSLKLSSVTAADTAVYYCARVLYNWNVDSWGQGTLVTVSS
VL: DIQMTQSPSSLSASVGDRVTITCRASQDIRNDVGWYQQKPGKAPKRLIYAASRLQSGVPSRFSGSGSGTEFTLTISSLQPEDFATYYCLQHNSYPRTFGQGTKVEIK
notes: Fab of E02-GL; also called EO2_GL Fab; E02-INT Fab
B2 was tested, and the Kd [10] was 405 nM, the Kd [11] was 1.2 nM and the “fold lower affinity than for human B7-H4 antigen” value [12] was about 100 fold. The Kd [13] was 1.21 nM, the Kd [14] was 3.7 nM and the Kd [15] was 3.94 nM.

B3: E02-INT (antibody intermediate of E02-GL-SG3932) (antibody, human IgG1, kappa)
heavy: not shown
light: B1 light
notes: also called E02-GL antibody; antibody intermediate E02-INT
For B3, the “EC50 (read off the curve)” value [16] was about 0.2 µg/mL, the Kd [1] was 31.1 nM and the koff [1] was 0.00292 s⁻¹. The kon [1] was 93800 M⁻¹ s⁻¹, the “EC50 (read off the curve)” value [2] was about 0.05 µg/mL and the “EC50 (read off the curve)” value [4] was about 0.08 µg/mL. The EC50 [6] was 1.98 nM, the “EC50 (read off the curve)” value [8] was about 0.07 µg/mL and the “EC50 (read off the curve)” value [17] was about 0.4 µg/mL. For the same binder, the “EC50 (read off the curve)” value [9] was about 0.1 µg/mL.

B4: E02-GLQ-maia (antibody, human IgG1, kappa, V domains shown)
VH: B2 VH with N52Q
VL: DIQMTQSPSSLSASVGDRVTITCRASQDIRNDVGWYQQKPGKAPKRLIYAASRLQSGVPSRFSGSGSGTEFTLTISSLQPEDFATYYCLQHNSYPRTFGQGTKVEIKR
notes: Germlined with a Q substitution, Maia format
B4: binds [18]; binds [19].

B5: E02-GLY-maia (antibody, human IgG1, kappa, V domains shown)
VH: B2 VH with N52Y
VL: B4 VL
notes: Germlined with a Y substitution, Maia format
B5: binds [20]; binds [21].
